In patent US6495314 (Scripps Research, dated 2002):
Numbering of substitutions follows the chain as printed. Names may count otherwise.

B1: c-Crk N-terminal SH3 domain (134-191) analogue, dipeptide KG (155-156) replaced by Gly-[COS]-βAla (other)
chain: AEYVRALFDFNGNDEEDLPFKGXDILRIRDKPEEQWWNAEDSEGKRGMIPVPYVEKYR
modifications: not fully specified; Gly-[COS]-βAla unit (-NH-CH2-CO-S-CH2-CH2-CO-) in place of K155-G156; backbone thioester
notes: It is one of the 19 dipeptide positions within c-Crk(146-165); Positions count on murine c-Crk; X = -S-CH2CH2-CO- unit; Tested crude in a pooled array
B2: c-Crk N-terminal SH3 domain (134-191) analogue, E^148E^149 replaced by Gly-[COS]-βAla (other)
chain: B1 chain with E15G, E16X, G22K, X23G
modifications: not fully specified; Gly-[COS]-βAla unit (-NH-CH2-CO-S-CH2-CH2-CO-) in place of E148-E149; backbone thioester
notes: Positions count on murine c-Crk; X = -S-CH2CH2-CO- unit; Tested crude in a pooled array
B3: c-Crk N-terminal SH3 domain (134-191) analogue, dipeptide DL (150-151) replaced by Gly-[COS]-βAla (other)
chain: B1 chain with D17G, L18X, G22K, X23G
modifications: not fully specified; Gly-[COS]-βAla unit (-NH-CH2-CO-S-CH2-CH2-CO-) in place of D150-L151; backbone thioester
notes: as for B2
B4: c-Crk N-terminal SH3 domain (134-191) analogue, D^147E^148 replaced by Gly-[COS]-βAla (other)
chain: B1 chain with D14G, E15X, G22K, X23G
modifications: not fully specified; Gly-[COS]-βAla unit (-NH-CH2-CO-S-CH2-CH2-CO-) in place of D147-E148; backbone thioester
notes: Positions count on murine c-Crk; X = -S-CH2CH2-CO- unit; Tested crude in a pooled array; also called DE
B5: c-Crk N-terminal SH3 domain (134-191) analogue, dipeptide ED (149-150) replaced by Gly-[COS]-βAla (other)
chain: B1 chain with E16G, D17X, G22K, X23G
modifications: not fully specified; Gly-[COS]-βAla unit (-NH-CH2-CO-S-CH2-CH2-CO-) in place of E149-D150; backbone thioester
notes: as for B2
B6: c-Crk N-terminal SH3 domain (134-191) analogue, dipeptide FK (153-154) replaced by Gly-[COS]-βAla (other)
chain: B1 chain with F20G, K21X, G22K, X23G
modifications: not fully specified; Gly-[COS]-βAla unit (-NH-CH2-CO-S-CH2-CH2-CO-) in place of F153-K154; backbone thioester
notes: as for B1
B7: Ac-CWAcp-PPPALPPKKR.amide, C3G-derived peptide designed for attachment to an affinity column (peptide)
peptide: CWPPPALPPKKR
modifications: N-terminal acetyl; ε-aminocaproic acid (Acp, B) at position 3; C-terminal amide; on the column the Cys side chain is coupled to iodoacetyl agarose (Sulfolink)
notes: also called Acetyl-CWAcp-C3G; Ac-CWBPPPALPPKKR.amide
B8: c-Crk N-terminal SH3 domain (134-191) analogue, dipeptide GD (156-157) replaced by Gly-[COS]-Gly (other)
chain: B1 chain with G22K, X23G, D24G
modifications: not fully specified; Gly-[COS]-Gly unit (-NHCH2CO-SCH2CO-) in place of G156-D157; backbone thioester (S in place of the NH of residue 157)
notes: Member of the nine-member Gly-[COS]-Gly array over cCrk(156-165); G156 stays Gly; Positions count on murine c-Crk; also called GD (Gly-[COS]-Gly array)
B9: c-Crk N-terminal SH3 domain (134-191) analogue, dipeptide RI (160-161) replaced by Gly-[COS]-Gly (other)
chain: B1 chain with G22K, X23G, R27G, I28G
modifications: not fully specified; Gly-[COS]-Gly unit (-NHCH2CO-SCH2CO-) in place of R160-I161; backbone thioester (S in place of the NH of residue 161)
notes: Member of the nine-member Gly-[COS]-Gly array over cCrk(156-165); Positions count on murine c-Crk; also called RI (Gly-[COS]-Gly array)
B10: c-Crk N-terminal SH3 domain (134-191) analogue, dipeptide KP (164-165) replaced by Gly-[COS]-Gly (other)
chain: B1 chain with G22K, X23G, K31G, P32G
modifications: not fully specified; Gly-[COS]-Gly unit (-NHCH2CO-SCH2CO-) in place of K164-P165; backbone thioester (S in place of the NH of residue 165)
notes: Member of the nine-member Gly-[COS]-Gly array over cCrk(156-165); Positions count on murine c-Crk; also called KP (Gly-[COS]-Gly array)
B11: c-Crk N-terminal SH3 domain (134-191) analogue, dipeptide LR (159-160) replaced by Gly-[COS]-Gly (other)
chain: B1 chain with G22K, X23G, L26G, R27G
modifications: not fully specified; Gly-[COS]-Gly unit (-NHCH2CO-SCH2CO-) in place of L159-R160; backbone thioester (S in place of the NH of residue 160)
notes: Member of the nine-member Gly-[COS]-Gly array over cCrk(156-165); Positions count on murine c-Crk; also called LR (Gly-[COS]-Gly array)
B12: c-Crk N-terminal SH3 domain (134-191) analogue, dipeptide IL (158-159) replaced by Gly-[COS]-Gly (other)
chain: B1 chain with G22K, X23G, I25G, L26G
modifications: not fully specified; Gly-[COS]-Gly unit (-NHCH2CO-SCH2CO-) in place of I158-L159; backbone thioester (S in place of the NH of residue 159)
notes: Member of the nine-member Gly-[COS]-Gly array over cCrk(156-165); Positions count on murine c-Crk; also called IL (Gly-[COS]-Gly array)
B13: c-Crk N-terminal SH3 domain (134-191) analogue, dipeptide DK (163-164) replaced by Gly-[COS]-Gly (other)
chain: B1 chain with G22K, X23G, D30G, K31G
modifications: not fully specified; Gly-[COS]-Gly unit (-NHCH2CO-SCH2CO-) in place of D163-K164; backbone thioester (S in place of the NH of residue 164)
notes: Member of the nine-member Gly-[COS]-Gly array over cCrk(156-165); Positions count on murine c-Crk; also called DK (Gly-[COS]-Gly array)
B14: c-Crk N-terminal SH3 domain (134-191) analogue, dipeptide RD (162-163) replaced by Gly-[COS]-Gly (other)
chain: B1 chain with G22K, X23G, R29G, D30G
modifications: not fully specified; Gly-[COS]-Gly unit (-NHCH2CO-SCH2CO-) in place of R162-D163; backbone thioester (S in place of the NH of residue 163)
notes: Member of the nine-member Gly-[COS]-Gly array over cCrk(156-165); Positions count on murine c-Crk; also called RD (Gly-[COS]-Gly array)
B15: c-Crk N-terminal SH3 domain (134-191) analogue, dipeptide IR (161-162) replaced by Gly-[COS]-Gly (other)
chain: B1 chain with G22K, X23G, I28G, R29G
modifications: not fully specified; Gly-[COS]-Gly unit (-NHCH2CO-SCH2CO-) in place of I161-R162; backbone thioester (S in place of the NH of residue 162)
notes: Member of the nine-member Gly-[COS]-Gly array over cCrk(156-165); Positions count on murine c-Crk; also called IR (Gly-[COS]-Gly array)
B16: c-Crk N-terminal SH3 domain (134-191) analogue, dipeptide DI (157-158) replaced by Gly-[COS]-Gly (other)
chain: B1 chain with G22K, X23G, D24G, I25G
modifications: not fully specified; Gly-[COS]-Gly unit (-NHCH2CO-SCH2CO-) in place of D157-I158; backbone thioester (S in place of the NH of residue 158)
notes: Member of the nine-member Gly-[COS]-Gly array over cCrk(156-165); Positions count on murine c-Crk; also called DI (Gly-[COS]-Gly array)

Target: B7
Assay: 19-member array on C3G peptide affinity column, MALDI MS readout

Row | binding result | Binder
1 | no binding | B1
2 | binds | B2
3 | no binding | B3
4 | binds | B4
5 | no binding | B5
6 | no binding | B6

target: T1, synthetic murine cCrk N-terminal SH3 domain (residues 134-191) (murine, UniProt Q64010 134-191); assay: tryptophan fluorescence titration in solution, 12 hours incubation
T1 construct: Made by total chemical synthesis and folded in HEPES/NaCl buffer; also called cCrk(134-191); c-Crk SH3
Description: The resulting synthetic protein domain was then assayed for its affinity for two different proline-rich peptides. […] This change in solvent exposure leads to an increase in the fluorescence intensity of the tryptophan sidechain which can be monitored as a function of increasing ligand concentration (Feng et al. *Science* 1994.266, 1241–1245).
1994, 3, 1261–1266. The purified and lyophilized 58 residue polypeptide chain (0.2 mg) was folded by dissolving in 0.6 mL of 20 mM Hepes, 60 mM NaCl, pH 7.3 to produce a folded protein solution (~50 μM).

Row | Kd [nM] | Binder
7 | 2400 | B7

target: BSA (UniProt P02769 25-607); assay: C3G peptide affinity column, stepwise NaCl washes, A280 and mass spectrometry
Sequence (P02769 25-607 limits assumed): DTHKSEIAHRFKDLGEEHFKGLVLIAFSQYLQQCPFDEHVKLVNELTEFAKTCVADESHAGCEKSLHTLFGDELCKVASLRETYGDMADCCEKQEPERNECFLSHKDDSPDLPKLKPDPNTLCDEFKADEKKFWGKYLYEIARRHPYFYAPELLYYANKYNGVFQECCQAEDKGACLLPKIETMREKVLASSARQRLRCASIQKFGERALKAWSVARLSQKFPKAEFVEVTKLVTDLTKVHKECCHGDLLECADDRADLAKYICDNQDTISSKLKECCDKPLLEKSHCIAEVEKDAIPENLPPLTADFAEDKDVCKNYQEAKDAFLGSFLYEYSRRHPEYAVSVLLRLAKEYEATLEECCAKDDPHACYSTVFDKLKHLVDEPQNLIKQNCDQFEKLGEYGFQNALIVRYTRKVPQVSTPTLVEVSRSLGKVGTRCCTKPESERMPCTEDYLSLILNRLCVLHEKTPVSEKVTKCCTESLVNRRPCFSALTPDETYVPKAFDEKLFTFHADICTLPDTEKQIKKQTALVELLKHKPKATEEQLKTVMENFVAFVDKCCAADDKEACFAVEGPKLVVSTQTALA
Description: The column was washed with 4 mL each of 50 mM NaCl, 100 mM NaCl, 200 mM NaCl, 300 mM NaCl, 400 mM NaCl, 500 mM NaCl and 1000 mM NaCl, 0.1 M phosphate, pH 7.0 buffer. The column was then washed with 1 M NH_2OH 200 mM NH_4CO_3 pH 6.0 (4 mL) and finally eluted in 6M Gn.HCl 100 mM phosphate pH 6.5 (4 mL). Samples from all column fractions were monitored by absorbance at 280 nm and by HPLC.

Row | binding result | Binder
8 | no binding | B7

Target: B7
Assay: Gly-[COS]-Gly array on C3G peptide affinity column, MALDI MS readout (FIG. 27A)

Row | binding result | Binder
9 | binds | B8
10 | binds | B9
11 | binds | B10
12 | binds | B11
13 | binds | B12
14 | binds | B13
15 | binds | B14
16 | binds | B15
17 | binds | B16
